{"source": "patent US20110318808", "key": {"[1]": {"biological_target": "T1, fluorophore/quencher substrate peptide DABCYL-YGENVTFQGSK-EDANS", "T1 chain": "YGENVTFQGSK"}, "[2]": {"biological_target": "T2, fusion substrate protein with the ENVTFQG consensus recognition sequence", "T2 chain": "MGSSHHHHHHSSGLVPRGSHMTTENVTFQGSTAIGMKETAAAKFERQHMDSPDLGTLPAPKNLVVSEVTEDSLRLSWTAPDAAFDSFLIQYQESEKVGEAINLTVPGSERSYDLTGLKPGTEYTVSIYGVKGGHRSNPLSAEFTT"}, "[3]": {"biological_target": "T3, fusion substrate protein with the PVA NIa protease consensus sequence with a P2' proline (ENVTFQGP)", "T3 chain": "ENVTFQGP"}, "[4]": {"biological_target": "T4, fusion substrate protein with the TEV NIa protease recognition sequence (ENLYGQGS)", "T4 chain": "ENLYGQGS"}, "[5]": {"biological_target": "T5, fusion substrate protein with the TVMV NIa protease recognition sequence (ETVRFQGS)", "T5 chain": "ETVRFQGS"}, "[6]": {"biological_target": "T6, synthetic peptide SEAVYTQGSS (NIa/NIb junction recognition sequence EAVYTQG)", "T6 chain": "SEAVYTQGSS"}, "[7]": {"biological_target": "T7, synthetic peptide SEMVTNQSSS (recognition sequence EMVTNQS)", "T7 chain": "SEMVTNQSSS"}, "[8]": {"biological_target": "T8, synthetic peptide SENVTFQGSS (consensus recognition sequence ENVTFQG)", "T8 chain": "SENVTFQGSS"}, "[9]": {"biological_target": "T9, synthetic peptide SENVTKQLSS (recognition sequence ENVTKQL)", "T9 chain": "SENVTKQLSS"}, "[10]": {"biological_target": "T10, synthetic peptide SEVVLFQASS (P3/6K1 junction recognition sequence EVVLFQA)", "T10 chain": "SEVVLFQASS"}}}
{"protein": "potato virus A (PVA) NIa protease, wild type (protein) STSMFRGVRDYNPISSVICQLENESEGRTTQLFGLGFGPFIITNQHLFVRNNGSLTVRSQMGVFKVNSTVTLQMRPVEGRDVLIIKMPKDFPPFPQRLKFRQPTHSEKVCLILTNFQQKSSSSMVSETSHIIPKENTYFWKHWISTKEGHCGSPIVSTTDGAILGIHSLSNMTNTSNYFACFPKGFTETYLATESAHEWVKGWKFNASNVCWGSFHLQDSKPTKEFKTVKLV", "values": [{"measurement": "Km (uM), DTT +", "setting": "[1]", "value": 178, "unit": "µM"}, {"measurement": "Relative Kcat/Km, DTT +", "setting": "[1]", "value": 100}, {"measurement": "Vmax (RFU/min), DTT +", "setting": "[1]", "value": 78500, "unit": "RFU/min"}, {"measurement": "proteolytic cleavage of the substrate monitored by SDS-PAGE", "setting": "[2]", "value": "cleaved the substrate to completion"}, {"measurement": "Cleaved by NIa (fusion substrate protein)", "setting": "[3]", "value": "No"}, {"measurement": "Cleaved by NIa (fusion substrate protein)", "setting": "[4]", "value": "No"}, {"measurement": "Cleaved by NIa (fusion substrate protein)", "setting": "[5]", "value": "Yes"}, {"measurement": "rate of cleavage of fusion substrate", "setting": "[5]", "value": "able to cleave the fusion substrate with the TVMV NIa protease recognition sequence, although at a much lower rate than the PVA NIa protease consensus sequence"}, {"measurement": "Cleaved by NIa (synthetic peptide, RP-HPLC and LC-MS)", "setting": "[6]", "value": "Yes"}, {"measurement": "Cleaved by NIa (synthetic peptide, RP-HPLC and LC-MS)", "setting": "[7]", "value": "No"}, {"measurement": "Cleaved by NIa (synthetic peptide, RP-HPLC and LC-MS)", "setting": "[8]", "value": "Yes"}, {"measurement": "Cleaved by NIa (synthetic peptide, RP-HPLC and LC-MS)", "setting": "[9]", "value": "No"}, {"measurement": "Cleaved by NIa (synthetic peptide, RP-HPLC and LC-MS)", "setting": "[10]", "value": "Yes"}]}
